No end group written: not given here.

This assay addresses T1, NPY Y2 receptor.
T1 chain: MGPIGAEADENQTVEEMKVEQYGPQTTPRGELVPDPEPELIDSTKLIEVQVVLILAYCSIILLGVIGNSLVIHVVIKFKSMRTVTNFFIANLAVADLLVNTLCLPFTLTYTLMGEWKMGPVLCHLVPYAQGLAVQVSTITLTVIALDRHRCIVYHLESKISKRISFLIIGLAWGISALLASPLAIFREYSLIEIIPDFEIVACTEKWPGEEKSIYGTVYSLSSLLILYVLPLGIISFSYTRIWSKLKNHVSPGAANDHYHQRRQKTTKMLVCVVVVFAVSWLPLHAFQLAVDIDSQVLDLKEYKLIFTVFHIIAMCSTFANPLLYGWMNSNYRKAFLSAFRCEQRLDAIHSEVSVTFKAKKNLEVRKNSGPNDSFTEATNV
Nature of the assay: receptor-binding study on a cell line expressing the NPY Y2 receptor.

Consider Ac-LRHYLNLLTRQRY (ends and bridges not checked, also called Y2A; Y2R selective agonist) [N-acetyl (Leu^28, Leu^31) NPY (24-36)], for which the IC50 was found to be 1.3 nM.

A word on the IC50: it is the concentration at which inhibition is half-maximal.

The values above are taken from patent US20060014678A1 (IMPERIAL INNOVATIONS, published 2006).
